Consider 2 substances from PMC11585597.

Assay [1] addresses StrepII-∆N-term DERA (Chloroflexi bacterium GWB2_54_36). Kind of assay: pull-down + SEC.
Assay [2] addresses HIS-∆N-term DERA (deoxyribose 5-phosphate aldolase of the SPU6 BMC locus, N-terminal extension deleted) (Chloroflexi bacterium GWB2_54_36). Kind of assay: SEC.

Usually stoichiometry N stands for a count of units in the complex or per binding partner. Take “HIS-RPI (ribose 5-phosphate isomerase B family protein of the SPU6 BMC locus, full length) (enzyme)”: in assay [1], the stoichiometry N turned out to be 1 and the subunits of each protein in the complex is over 2.

In turn, “HIS-∆N-term DERA (deoxyribose 5-phosphate aldolase of the SPU6 BMC locus, N-terminal extension deleted) (domain or fragment)” showed a stoichiometry N in assay [2] of 2.
